Results as given in PMC11652679.

Biological target: Mayaro virus E1-E2 heterodimer on the VLP (Mayaro virus) (UniProt Q8QZ72)
Assay: cryo-EM structure; single-particle averaging with icosahedral (I1) reconstruction of purified MAYV VLPs, ~1-2 mg/mL in STE buffer, vitrified at 4 °C; final resolution 4.5 Å

Mayaro virus E1-E2 heterodimer on the VLP (from UniProt Q8QZ72 807-1242) (complex)
stoichiometry N: 3
